B1: mRNA-splicing (parent)
chain: AGUUGCUGCUGGGAGCUCCAGCACAGUGAAAUGGACAGAAGGGCAGAGCAA

Variants of: B1
Assay: exon inclusion enrichment index; higher = more inclusion; WT1 exon 5 minigene, HEK293

Variant | exon inclusion enrichment index
G5A C6U U7A G8U C9A C36G A37G | 0.00777
G5A C6U U7A G8U C9A C36G A37U | 0.0196
G5A C6G U7G G8C C9A | 0.0086
G5A C6G U7G G8C C9U | 0.00108
G5A C6G U7G G8C C9G | 0.0513
G5A C6U U7A G8U C9A C19G | 0.0674
G5A C6U U7A G8U C9A C19A | 0.0415
G5A C6U U7A G8U C9A C19U | 0.00395
G5A C6U U7A G8U C9A C36A | 0.0298
G5A C6U U7A G8U C9A C36U | 0.00462
G5A C6U U7A G8U C9A C36G | 0.0434
G5A C6U U7A G8U C9A A37U G38C | 0.0673
G5A C6U U7A G8U C9A A37U G38A | 0.0163
G5A C6U U7A G8U C9A A37U G38U | 0.0205
G5A C6U U7A G8U C9A A29U A30G | 0.0618
G5A C6U U7A G8U C9A A29U A30U | 0.00971
G5A C6U U7A G8U C9A A29U A30C | 0.0463
G5A C6U U7A G8U C9A A23G | 0.157
G5A C6U U7A G8U C9A A23C | 0.0335
G5A C6U U7A G8U C9A A23U | 0.0353
G5A C6U U7A G8U C9A C19U A20G | 0.00852

Variant | exon inclusion enrichment index
G5A C6U U7A G8U C9A C19U A20U | 0.00982
G5A C6U U7A G8U C9A C19U A20C | 0.078
G5A C6U U7A G8U C9A A30G A31C | 0.00117
G5A C6U U7A G8U C9A A30G A31U | 0.0123
G5A C6U U7A G8U C9A A30G A31G | 0.00768
G5A C6U U7A G8U C9A C18U C19U | 0.00085
G5A C6U U7A G8U C9A C18U C19A | 0.00119
G5A C6U U7A G8U C9A C18U C19G | 0.0036
G5A C6U U7A G8U C9A A40C G41C | 0.455
G5A C6U U7A G8U C9A A40C G41U | 0.0189
G5A C6U U7A G8U C9A A40C G41A | 0.00954
G5A C6U U7A G8U C9A C18G C19U | 0.00519
G5A C6U U7A G8U C9A C18G C19A | 0.0894
G5A C6U U7A G8U C9A C18G C19G | 0.0648
G5A C6U U7A G8U C9A A25G G26C | 0.493
G5A C6U U7A G8U C9A A25G G26U | 0.231
G5A C6U U7A G8U C9A A25G G26A | 0.36
G5A C6U U7A G8U C9A C44U A45C | 0.1
G5A C6U U7A G8U C9A C44U A45G | 0.0383
G5A C6U U7A G8U C9A C44U A45U | 0.0242
G5A C6U U7A G8U C9A A37G G38A | 0.0869

Variant | exon inclusion enrichment index
G5A C6U U7A G8U C9A A37G G38C | 0.113
G5A C6U U7A G8U C9A A37G G38U | 0.0165
G5A C6U U7A G8U C9A C22G A23C | 0.0334
G5A C6U U7A G8U C9A C22G A23G | 0.0166
G5A C6U U7A G8U C9A C22G A23U | 0.00095
G5A C6U U7A G8U C9A A37C G38U | 0.00922
G5A C6U U7A G8U C9A A37C G38C | 0.0761
G5A C6U U7A G8U C9A A37C G38A | 0.0896
G5A C6U U7A G8U C9A A40U | 0.0441
G5A C6U U7A G8U C9A A40C | 0.241
G5A C6U U7A G8U C9A A40G | 0.0627
G5A C6U U7A G8U C9A G11C G12C | 0.0512
G5A C6U U7A G8U C9A G11C G12A | 0.0128
G5A C6U U7A G8U C9A G11C G12U | 0.0197
G5A C6U U7A G8U C9A C16U | 0.0512
G5A C6U U7A G8U C9A C16A | 0.0643
G5A C6U U7A G8U C9A C16G | 0.0112
G5A C6U U7A G8U C9A A25C G26A | 0.223
G5A C6U U7A G8U C9A A25C G26C | 0.0828
G5A C6U U7A G8U C9A A25C G26U | 0.133
G5A C6U U7A G8U C9A A47U G48C | 0.0371

Variant | exon inclusion enrichment index
G5A C6U U7A G8U C9A A47U G48U | 0.0462
G5A C6U U7A G8U C9A A47U G48A | 0.0443
G5A C6U U7A G8U C9A A39C A40U | 0.0208
G5A C6U U7A G8U C9A A39C A40G | 0.0817
G5A C6U U7A G8U C9A A39C A40C | 0.204
G5A C6U U7A G8U C9A A29C A30C | 0.142
G5A C6U U7A G8U C9A A29C A30U | 0.0308
G5A C6U U7A G8U C9A A29C A30G | 0.219
G5A C6U G8A C9A | 0.0634
G5A C6U U7A G8U C9A C19A A20G | 0.00271
G5A C6U U7A G8U C9A C19A A20C | 0.0154
G5A C6U U7A G8U C9A C19A A20U | 0.0348
G5A C6U U7A G8U C9A C18A C19G | 0.00128
G5A C6U U7A G8U C9A C18A C19U | 0.00112
G5A C6U U7A G8U C9A C18A C19A | 0.00553
G5A C6U U7A G8U C9A A47G | 0.0115
G5A C6U U7A G8U C9A A47U | 0.0348
G5A C6U U7A G8U C9A A47C | 0.133
G5A C6U U7A G8A U10C | 0.863
G5A C6U U7A G8U C9A A45G G46U | 0.0592
G5A C6U U7A G8U C9A A45G G46C | 0.131

Source: the RNAGym collection of RNA variant scans (doi:10.1101/gr.219683.116)
